Measured values taken from patent US20120122128A1 (ALLERGAN, published 2012).

Molecular target: T1, SNAP-25206 uncleaved substrate in PC12 cells (rat (PC12 cell line), UniProt P60881 1-206, limits assumed)
T1 construct: also called uncleaved SNAP-25206 substrate; uncleaved SNAP-25
Test: immunocytochemistry of PC12 cells +/- GFP-BoNT/A-LC, ascites 1:10

T1 sequence (P60881 whole entry): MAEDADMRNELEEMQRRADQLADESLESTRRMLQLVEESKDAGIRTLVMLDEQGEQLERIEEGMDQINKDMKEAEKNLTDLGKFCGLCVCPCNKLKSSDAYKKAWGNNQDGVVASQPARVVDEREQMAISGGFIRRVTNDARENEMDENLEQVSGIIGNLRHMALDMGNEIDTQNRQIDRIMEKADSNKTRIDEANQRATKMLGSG

B1: α-SNAP-25 monoclonal antibody 3C1A5 (antibody, V domains shown)
VH: VKLQESGAELVKPGASVKISCKASGYTFTDHSIHWVKQKPGQGLEWIGYLFPGNGNFEYNEKFKGKATLTADKSSSTVYMYLNSLTSEDSAVYFCKRMGYWGQGTTVTVSS
VL: DIKMTQSPSSMYASLGERVTITCKASQDIKSYLSWYQQKPWKSPKTLIYYATSLADGVPSRFSGSGSGQDYSLTISSLESDDTATYYCLQHGESPFTFGSGTKLEIKR
binding result: no binding
